Results from publication PMC12816604, “Structural basis of double-stranded RNA recognition by the J2 monoclonal antibody”.
Residue numbers refer to the chain shown, from its start.

How the values were obtained:
[1] = test system: J2 IgG WT, PDB:9OJV_1+PDB:9OJV_2; experiment: FP; settings: BLI: 25 mM Tris-HCl pH 7.5, 100-400 mM KCl (per row), 2 mM MgCl2, 25 C, IgG immobilized on Protein A; FP: 25 mM Tris-HCl pH 7.5, 100 mM KCl, 2 mM MgCl2, 21 C
[2] = test system: J2 IgG HC A30P, PDB:9OJV_1+PDB:9OJV_2; experiment: BLI steady state; settings: 100 mM KCl; kinetic Kd 28 ± 14 nM; BLI: 25 mM Tris-HCl pH 7.5, 100-400 mM KCl (per row), 2 mM MgCl2, 25 C, IgG immobilized on Protein A; FP: 25 mM Tris-HCl pH 7.5, 100 mM KCl, 2 mM MgCl2, 21 C
[3] = test system: J2 IgG HC Y50F, PDB:9OJV_1+PDB:9OJV_2; experiment: BLI steady state; settings: 100 mM KCl; kinetic Kd 94 ± 49 nM; BLI: 25 mM Tris-HCl pH 7.5, 100-400 mM KCl (per row), 2 mM MgCl2, 25 C, IgG immobilized on Protein A; FP: 25 mM Tris-HCl pH 7.5, 100 mM KCl, 2 mM MgCl2, 21 C
[4] = test system: J2 IgG HC Y52F, PDB:9OJV_1+PDB:9OJV_2; experiment: BLI steady state; settings: 100 mM KCl; kinetic Kd 210 ± 20 nM; BLI: 25 mM Tris-HCl pH 7.5, 100-400 mM KCl (per row), 2 mM MgCl2, 25 C, IgG immobilized on Protein A; FP: 25 mM Tris-HCl pH 7.5, 100 mM KCl, 2 mM MgCl2, 21 C
[5] = test system: J2 IgG HC Y54A, PDB:9OJV_1+PDB:9OJV_2; experiment: BLI steady state; settings: 100 mM KCl; kinetic Kd 270 ± 10 nM; BLI: 25 mM Tris-HCl pH 7.5, 100-400 mM KCl (per row), 2 mM MgCl2, 25 C, IgG immobilized on Protein A; FP: 25 mM Tris-HCl pH 7.5, 100 mM KCl, 2 mM MgCl2, 21 C
[6] = test system: J2 IgG HC Y54F, PDB:9OJV_1+PDB:9OJV_2; experiment: BLI steady state; settings: 100 mM KCl; kinetic Kd 250 ± 40 nM; BLI: 25 mM Tris-HCl pH 7.5, 100-400 mM KCl (per row), 2 mM MgCl2, 25 C, IgG immobilized on Protein A; FP: 25 mM Tris-HCl pH 7.5, 100 mM KCl, 2 mM MgCl2, 21 C
[7] = test system: J2 IgG LC Y31A, PDB:9OJV_1+PDB:9OJV_2; experiment: BLI steady state; settings: 100 mM KCl; kinetic Kd 207 ± 21 nM; BLI: 25 mM Tris-HCl pH 7.5, 100-400 mM KCl (per row), 2 mM MgCl2, 25 C, IgG immobilized on Protein A; FP: 25 mM Tris-HCl pH 7.5, 100 mM KCl, 2 mM MgCl2, 21 C
[8] = test system: J2 IgG LC Y31F, PDB:9OJV_1+PDB:9OJV_2; experiment: BLI steady state; settings: 100 mM KCl; kinetic Kd 130 ± 20 nM; BLI: 25 mM Tris-HCl pH 7.5, 100-400 mM KCl (per row), 2 mM MgCl2, 25 C, IgG immobilized on Protein A; FP: 25 mM Tris-HCl pH 7.5, 100 mM KCl, 2 mM MgCl2, 21 C
[9] = test system: J2 IgG LC Y38F, PDB:9OJV_1+PDB:9OJV_2; experiment: BLI steady state; settings: 100 mM KCl; kinetic Kd 83 ± 14 nM; BLI: 25 mM Tris-HCl pH 7.5, 100-400 mM KCl (per row), 2 mM MgCl2, 25 C, IgG immobilized on Protein A; FP: 25 mM Tris-HCl pH 7.5, 100 mM KCl, 2 mM MgCl2, 21 C
[10] = test system: J2 IgG WT, PDB:9OJV_1+PDB:9OJV_2; experiment: BLI steady state; settings: BLI: 25 mM Tris-HCl pH 7.5, 100-400 mM KCl (per row), 2 mM MgCl2, 25 C, IgG immobilized on Protein A, FP: 25 mM Tris-HCl pH 7.5, 100 mM KCl, 2 mM MgCl2, 21 C
[11] = test system: J2 IgG WT, PDB:9OJV_1+PDB:9OJV_2; experiment: FP competition; settings: vs 3'-FAM VA-I RNA; BLI: 25 mM Tris-HCl pH 7.5, 100-400 mM KCl (per row), 2 mM MgCl2, 25 C, IgG immobilized on Protein A; FP: 25 mM Tris-HCl pH 7.5, 100 mM KCl, 2 mM MgCl2, 21 C
[12] = target: T1, J2 IgG heavy chain (HC-TEV-His8);J2 IgG light chain (Mus musculus;Mus musculus, UniProt ; ;, |); experiment: BLI; 400 mM KCl; BLI: 25 mM Tris-HCl pH 7.5, 2 mM MgCl2, KCl 100 mM (6-20 bp and mutants), 200 mM (30 bp) or 400 mM (40, 50 bp), 25 C; IgG immobilised on Protein A probes; settings: protein: recombinant;recombinant, tags: His8 (C-term);, chain copies: 2;2
[13] = target: T1, J2 IgG heavy chain (HC-TEV-His8);J2 IgG …; experiment: BLI; 200 mM KCl; BLI: 25 mM Tris-HCl pH 7.5, 2 mM MgCl2, KCl 100 mM (6-20 bp and mutants), 200 mM (30 bp) or 400 mM (40, 50 bp), 25 C; IgG immobilised on Protein A probes; settings: protein: recombinant;recombinant, tags: His8 (C-term);, chain copies: 2;2
[14] = target: T1, J2 IgG heavy chain (HC-TEV-His8);J2 IgG …; experiment: BLI; 100 mM KCl; BLI: 25 mM Tris-HCl pH 7.5, 2 mM MgCl2, KCl 100 mM (6-20 bp and mutants), 200 mM (30 bp) or 400 mM (40, 50 bp), 25 C; IgG immobilised on Protein A probes; settings: protein: recombinant;recombinant; tags: His8 (C-term);; chain copies: 2;2; blunt

T1 sequence (chain, as listed by the source |, chain 1 of 2): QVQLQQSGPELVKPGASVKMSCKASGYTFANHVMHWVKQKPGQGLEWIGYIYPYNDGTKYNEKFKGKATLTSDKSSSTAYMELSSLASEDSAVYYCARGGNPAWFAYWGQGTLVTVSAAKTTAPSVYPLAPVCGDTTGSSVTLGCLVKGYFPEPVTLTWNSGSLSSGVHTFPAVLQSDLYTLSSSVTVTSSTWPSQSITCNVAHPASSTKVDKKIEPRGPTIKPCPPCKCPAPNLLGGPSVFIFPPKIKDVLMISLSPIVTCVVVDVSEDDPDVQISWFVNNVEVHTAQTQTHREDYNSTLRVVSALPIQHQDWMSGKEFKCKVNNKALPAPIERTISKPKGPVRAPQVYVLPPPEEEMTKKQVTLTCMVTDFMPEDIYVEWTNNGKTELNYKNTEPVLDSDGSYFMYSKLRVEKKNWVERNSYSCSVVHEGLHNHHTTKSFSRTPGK
T1 sequence (chain, as listed by the source |, chain 2 of 2): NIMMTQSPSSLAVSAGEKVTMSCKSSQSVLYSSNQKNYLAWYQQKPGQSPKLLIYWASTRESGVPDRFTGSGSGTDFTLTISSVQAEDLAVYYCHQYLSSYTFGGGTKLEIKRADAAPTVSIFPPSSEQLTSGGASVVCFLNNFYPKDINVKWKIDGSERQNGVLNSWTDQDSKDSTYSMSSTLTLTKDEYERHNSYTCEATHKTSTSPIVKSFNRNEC

Work on 3'-FAM Adenovirus VA-I RNA yielded a Kd [1] of 32 nM.

For “GUUGUAAAGAAAUAUAGGCU / AGCCUAUAUUUCUUUACAAC [20-bp dsRNA]”, the Kd [2] was 120 nM, the Kd [3] was 430 nM and the Kd [4] was 220 nM. The Kd [5] was 300 nM, the Kd [6] was 710 nM and the Kd [7] was 940 nM. For the same molecule, the Kd [8] was 360 nM, the Kd [9] was 150 nM and the Kd ([10]; 100 mM KCl, kinetic Kd 150 ± 80 nM) was 120 nM.

With “GUUGUAAAGAAAUAUAACAGGCUUGUACCA / UGGUACAAGCCUGUUAUAUUUCUUUACAAC [30-bp dsRNA]” the Kd ([10]; 200 mM KCl, kinetic Kd 37 ± 7 nM) was 47 nM.

In the case of “GUUGUAAAGAAGGU / ACCUUCUUUACAAC [14-bp dsRNA]”, the Kd ([10]; 100 mM KCl, kinetic Kd 1400 ± 800 nM) is reported as 2100 nM.

“GUUGUAAAGAAAUAUAACAGGCUUGUACCAUUGAUGGAAA / UUUCCAUCAAUGGUACAAGCCUGUUAUAUUUCUUUACAAC [40-bp dsRNA]” was tested, and the Kd ([10]; 400 mM KCl, kinetic Kd 33 ± 6 nM) was 80 nM.

“GUUGUAAAGAAAUAUAACAGGCUUGUACCAUUGAUGGAAAAGAACAACGU / ACGUUGUUCUUUUCCAUCAAUGGUACAAGCCUGUUAUAUUUCUUUACAAC [50-bp dsRNA]” gave an IC50 [11] of 17 nM and a Kd [10] of 22 nM.

B1: 40-bp dsRNA (dsRNA)
RNA 1: GUUGUAAAGAAGGUCAAUAUUGUACCAAACUUGAUGGAAA
RNA 2: UUUCCAUCAAGUUUGGUACAAUAUUGACCUUCUUUACAAC
B1 was tested, and the Kd ([12]; blunt) was 80 ± 15 nM.

B2: 30-bp dsRNA 3% GC (dsRNA)
RNA 1: AUUAUAAAUAAUUUCAAUAUUAUAUUAAAU
RNA 2: AUUUAAUAUAAUAUUGAAAUUAUUUAUAAU
In the case of B2, the Kd [13] is reported as 220 ± 90 nM.

B3: 30-bp dsRNA 0% GC (dsRNA)
RNA 1: B2 RNA 1 with C15A
RNA 2: B2 RNA 2 with G16U
B3 showed a Kd [13] of 290 ± 60 nM.

B4: 40-bp AU-dinucleotide dsRNA (dsRNA)
RNA 1: AUAUAUAUAUAUAUAUAUAUAUAUAUAUAUAUAUAUAUAU
RNA 2: B4 RNA 1
Molecule B4 has a Kd [12] of 91 ± 11 nM.

B5: 50-bp dsRNA (dsRNA)
RNA 1: GUUGUAAAGAAGGUCAAUAUUGUACCAAACUUGAUGGAAAAGAACAACGU
RNA 2: ACGUUGUUCUUUUCCAUCAAGUUUGGUACAAUAUUGACCUUCUUUACAAC
In the case of B5, the Kd ([12]; blunt) is reported as 22 ± 8 nM.

B6: 30-bp dsRNA 47% GC (dsRNA)
RNA 1: GUUGUCCAGAAGGUCAAUAGCGUACCAAAC
RNA 2: GUUUGGUACGCUAUUGACCUUCUGGACAAC
For B6, the Kd ([13]; blunt) was 110 ± 20 nM.

B7: 6-bp dsRNA (dsRNA)
RNA 1: GUUGUA
RNA 2: UACAAC
B7: no binding [14].

B8: 30-bp dsRNA 17% GC (dsRNA)
RNA 1: GUUGUAAAUAAGUUCAAUAUUAUACUAAAU
RNA 2: AUUUAGUAUAAUAUUGAACUUAUUUACAAC
For B8, the Kd ([13]; blunt) was 36 ± 22 nM.

B9: 14-bp dsRNA (dsRNA)
RNA 1: GUUGUAAAGAAGGU
RNA 2: ACCUUCUUUACAAC
B9 gave a Kd [14] of 2100 ± 600 nM.
